Measurements as given in article PMC2810717.

Substrate: CC(=O)NCCCNCCCCNCCCN
Experiment: purified protein
Type: biochemical, Homo sapiens
Details: FAD; pH 8.3; 25.0 °C

B1: spermine oxidase (SMO) (Homo sapiens) (protein)
chain: MQSCESSGDSADDPLSRGLRRRGQPRVVVIGAGLAGLAAAKALLEQGFTDVTVLEASSHIGGRVQSVKLGHATFELGATWIHGSHGNPIYHLAEANGLLEETTDGERSVGRISLYSKNGVACYLTNHGRRIPKDVVEEFSDLYNEVYNLTQEFFRHDKPVNAESQNSVGVFTREEVRNRIRNDPDDPEATKRLKLAMIQQYLKVESCESSSHSMDEVSLSAFGEWTEIPGAHHIIPSGFMRVVELLAEGIPAHVIQLGKPVRCIHWDQASARPRGPEIEPRGEGDHNHDTGEGGQGGEEPRGGRWDEDEQWSVVVECEDCELIPADHVIVTVSLGVLKRQYTSFFRPGLPTEKVAAIHRLGIGTTDKIFLEFEEPFWGPECNSLQFVWEDEAESHTLTYPPELWYRKICGFDVLYPPERYGHVLSGWICGEEALVMEKCDDEAVAEICTEMLRQFTGNPNIPKPRRILRSAWGSNPYFRGSYSYTQVGSSGADVEKLAKPLPYTESSKTAPMQVLFSGEATHRKYYSTTHGALLSGQREAARLIEMYRDLFQQGT
Km: 492 ± 97 µM
